For one assay, the target named is T1, human ZnT8-His (human, UniProt Q8IWU4-2 1-320, limits assumed).
T1 construct: Over-expressed in HEK293 cells, solubilized with DDM and immobilized on Ni-NTA plates (native or unfolded with 2% SDS), or SDS-denatured on immunoblots; also called human ZnT8 with C-terminal poly-histidine tag; not shown: C-terminal poly-histidine tag
T1 sequence (looked up): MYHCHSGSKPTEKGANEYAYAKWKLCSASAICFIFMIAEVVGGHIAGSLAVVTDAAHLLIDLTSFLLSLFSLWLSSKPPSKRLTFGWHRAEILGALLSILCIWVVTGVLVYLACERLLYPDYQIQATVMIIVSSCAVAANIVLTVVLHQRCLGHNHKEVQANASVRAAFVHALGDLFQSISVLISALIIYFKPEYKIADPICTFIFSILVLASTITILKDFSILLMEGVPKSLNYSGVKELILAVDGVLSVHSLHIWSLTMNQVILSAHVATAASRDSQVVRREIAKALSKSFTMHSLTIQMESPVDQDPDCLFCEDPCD
Description: ELISA, ZnT8-His on Ni-NTA plate, HRP-conjugated secondary antibody; binder taken from the axis label and paragraph 166; curve taken as human. From the text:
(§1) FIG. 7A-7D. mAb binding specificities (FIG. 7A) mAb binding to ZnT8-His immobilized to Ni-NTA plate. Bound mAb20 (red) or mAb39 (magenta) was detected by an HRP-conjugated secondary antibody. Solid lines are least-squares fits of binding datapoints to a one-component binding process. Error bars are standard errors (n=8). (FIG. 7B) SDS-denatured mouse ZnT8-His (labeled as M) and human ZnT8-His (labeled as H) on immunoblots were detected by mAb20 or mAb39 as indicated. […] (FIG. 7C) Detection of endogenous human ZnT8 in EndoC-βH cells by mAb20 or […] immunoblotting. An equal amount of EndoC-βH lysate (5 μg total protein) was loaded to each lane. (FIG. 7D) Immunoblotting of HEK lysates with or with over-expression of a ZnT homolog as indicated. An approximately equal amount of total lysate protein (5 μg) was located to each lane, probed by either mAb20, mAb39, or anti-FALG antibody as indicated. FIG. 8. HTRF response to human ZnT8, mouse ZnT8 and human ZnT3.
(§2) Binding specificities. […] Of note, the epitope-masking effect of ZnT8 immobilization weakened the apparent binding affinities of both mAbs as compared to the affinities determined by flow-cytometry, and such a weakening effect was more pronounced for mAb39, probably due to a closer proximity of the mAb39 epitope to the C-terminal His-tag. Next, we compared the immunoreactivities of mAbs to denatured ZnT8.
A general note: ELISA stands for enzyme-linked immunosorbent assay.

The target in another assay is T2, mouse ZnT8-His (mouse, UniProt Q8BGG0 1-367, limits assumed).
T2 construct: Over-expressed in HEK293 cells, solubilized with DDM and immobilized on Ni-NTA plates, or SDS-denatured on immunoblots; not shown: C-terminal poly-histidine tag
T2 sequence (looked up): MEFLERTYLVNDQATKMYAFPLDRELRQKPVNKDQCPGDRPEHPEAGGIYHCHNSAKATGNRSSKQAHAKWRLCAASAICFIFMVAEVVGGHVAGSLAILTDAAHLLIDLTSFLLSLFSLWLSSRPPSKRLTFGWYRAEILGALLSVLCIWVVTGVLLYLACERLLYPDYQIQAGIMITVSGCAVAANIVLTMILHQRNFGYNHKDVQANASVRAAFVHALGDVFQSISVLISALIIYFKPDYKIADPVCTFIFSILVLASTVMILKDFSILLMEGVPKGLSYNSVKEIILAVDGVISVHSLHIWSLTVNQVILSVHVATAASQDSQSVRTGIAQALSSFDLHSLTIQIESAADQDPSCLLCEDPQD
As to the kind of experiment: ELISA, ZnT8-His on Ni-NTA plate, HRP-conjugated secondary antibody; binder taken from the axis label and paragraph 166; curve taken as mouse.
Text: as §1, §2

Assay [1] deals with T3, monomeric human ZnT8 CTD-His antigen (aa 275-369) (human, UniProt Q8IWU4 275-369).
T3 construct: range 275-369; Immobilized on Ni-NTA plates through the C-terminal poly-histidine tag; also called CTD-His monomer; monomeric CTD antigen; not shown: C-terminal poly-histidine tag
T3 sequence (looked up): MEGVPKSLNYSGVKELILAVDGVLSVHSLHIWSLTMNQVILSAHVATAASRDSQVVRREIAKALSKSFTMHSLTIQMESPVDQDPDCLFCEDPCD
Description: ELISA, monomeric CTD-His on Ni-NTA plate. From the text:
Error bars represent standard deviations. (FIG. 1B) ELISA against a monomeric CTD antigen immobilized to Ni-NTA plate via a C-terminal poly-histidine tag. CTDA and NTDA were used a positive and negative control, respectively (Z>0.5).
Materials and Methods Generating hybridoma. Four pairs of male/female homozygous Slc30a8-1- mice were immunized by weekly intraperitoneal injections of a human ZnT8 antigen (the R325 variant) in reconstituted proteoliposomes. All experiments with mice were approved by the Institutional Animal Care and Use Committee of Johns Hopkins University School of Medicine. Serum antibody titering and validation of anti-ZnT8 specificity by CRISPR/Cas9 ZnT8-knockout were described previously (36). Following a final immunization boost, spleens were isolated. Splenocytes were fused with an immortalized myeloma cell line Sp2/0-Ag14 (CRL-1581, ATCC) at a 4:1 splenocytes-to-myeloma ratio by adding 1 ml of 50% PEG1500 (w/v, Roche) to the cell mixture drop-by-drop over 1 min (37). […] Bound antibodies were detected by an HRP-conjugated goat anti-mouse secondary antibody (Invitrogen, cat. #62-6500) with 1:3000 dilutions in assay buffer, followed by ABTS colorimetric reaction (Life Technologies) and signal readout at 415 nm on a plate reader (Molecular Device). […]

B1: mAb39 (antibody, V domains shown)
VH: QVQLQQPGAELVKPGASVKLSCKASGYSFTTYWMHWVKQRPGQGLEWVGDINPRNGRTNYNEKSKSKATLTVDISSSTVYMQVSSLTSEDSAVYYCAIWSGAMDYWGPGTSVTVSS
VL: DVVMTQTPLSLPVSLGDQPSISCKSSQSLVHNNGNTYLHWYLQKPGQSPKLLIYKVSNRFSGVPDRFSGSGSGTDFTLKISRVEAEDLGVYFCSQTTHVPPTFGGGTKLEIKR
notes: Mouse hybridoma mAb purified on protein A/G; In some assays it was labelled with Alexa Fluor 555 or d2; also called monoclonal antibody mAb39; anti-ZnT8 mAb39
As to B1, the EC50 (read off the curve) – broadly, the concentration needed to bring the measured effect to its halfway point – is approximately 10 nM in the assay with human ZnT8-His and approximately 30 nM with mouse ZnT8-His. Besides, the binding result in assay [1] is recorded as “no binding”.

The values are drawn from patent US20210238279A1 (Johns Hopkins, published 2021).
